Test results: the supplement of paper PMC10567573

B1: TRIM39 (parent)
chain: CKACITRWWEDLERDFPCPVCRKT
B2: APBB1IP (parent)
chain: SQVSMWDQRWQDHQPLLPITDVP

Variants of: B1
Experiment: protein stability index of a GFP-peptide fusion (GPS, HEK-293T) (PSI 1-6); higher = more stable
Conditions: c terminus: a fixed tail appended
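Further: lentivirally expressed fusions sorted by FACS into six bins by GFP to DsRed ratio, PSI derived from sequencing read proportions per bin multiplied by bin number.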

Variant | protein stability index
CKACITRWWEDLERDFPCPVCRKE [T24E] | 3.98
CKACITRWWEDLERDFPCPVCRKM [T24M] | 3.76
CKACITRWWEDLERDFPCPVCRKA [T24A] | 4.07
CKACITRWWEDLERDFPCPVCRKH [T24H] | 3.58
CKACITRWWEDLERDFPCPVCRKR [T24R] | 3.67
CKACITRWWEDLERDFPCPVCRKV [T24V] | 3.57
CKACITRWWEDLERDFPCPVCRKW [T24W] | 3.02
CKACITRWWEDLERDFPCPVCRKP [T24P] | 2.78
CKACITRWWEDLERDFPCPVCRKD [T24D] | 4.83
CKACITRWWEDLERDFPCPVCRKG [T24G] | 4.24
CKACITRWWEDLERDFPCPVCRKF [T24F] | 3.03
CKACITRWWEDLERDFPCPVCRKY [T24Y] | 3.74
CKACITRWWEDLERDFPCPVCRKN [T24N] | 3.61
CKACITRWWEDLERDFPCPVCRKQ [T24Q] | 4.21
CKACITRWWEDLERDFPCPVCRKC [T24C] | 2.75
CKACITRWWEDLERDFPCPVCRKI [T24I] | 3.57
CKACITRWWEDLERDFPCPVCRKS [T24S] | 4.03
CKACITRWWEDLERDFPCPVCRKK [T24K] | 3.83
CKACITRWWEDLERDFPCPVCRKL [T24L] | 3.78
CKACITRWWEDLERDFPCPRCRKT [V20R] | 3.99
CKACITRWWEDLERDFPCPMCRKT [V20M] | 3.37
CKACITRWWEDLERDFPCPTCRKT [V20T] | 4.4
CKACITRWWEDLERDFPCPNCRKT [V20N] | 4.37

Variant | protein stability index
CKACITRWWEDLERDFPCPKCRKT [V20K] | 4.19
CKACITRWWEDLERDFPCPHCRKT [V20H] | 3.88
CKACITRWWEDLERDFPCPPCRKT [V20P] | 2.36
CKACITRWWEDLERDFPCPSCRKT [V20S] | 4.3
CKACITRWWEDLERDFPCPQCRKT [V20Q] | 4.09
CKACITRWWEDLERDFPCPLCRKT [V20L] | 4.16
CKACITRWWEDLERDFPCPICRKT [V20I] | 4.22
CKACITRWWEDLERDFPCPWCRKT [V20W] | 3.56
CKACITRWWEDLERDFPCPYCRKT [V20Y] | 3.73
CKACITRWWEDLERDFPCPVCVKT [R22V] | 3.04
CKACITRWWEDLERDFPCPVCWKT [R22W] | 2.53
CKACITRWWEDLERDFPCPVCPKT [R22P] | 3.15
CKACITRWWEDLERDFPCPVCNKT [R22N] | 4.22
CKACITRWWEDLERDFPCPVCLKT [R22L] | 3.81
CKACITRWWEDLERDFPCPVCTKT [R22T] | 3.72
CKACITRWWEDLERDFPCPVCSKT [R22S] | 3.56
CKACITRWWEDLERDFPCPVCAKT [R22A] | 4.36
CKACITRWWEDLERDFPCPVCDKT [R22D] | 3.75
CKACITRWWEDLERDFPCPVCEKT [R22E] | 4.37
CKACITRWWEDLERDFPCPVCHKT [R22H] | 4.32
CKACITRWWEDLERDFPCPVCYKT [R22Y] | 3.58
CKACITRWWEDLERDFPCPVCMKT [R22M] | 3.72
CKACITRWWEDLERDFPCPVCQKT [R22Q] | 3.96

Variant | protein stability index
CKACITRWWEDLERDFPCPVCGKT [R22G] | 4.6
CKACITRWWEDLERDFPCPVCKKT [R22K] | 3.47
CKACITRWWEDLERDFPCPVCCKT [R22C] | 3.74
CKACITRWWEDLERDFPCPVCIKT [R22I] | 3.62
CKACITRWWEDLERDFPCPVCFKT [R22F] | 3.4
CKACITRWWEDLERDFPCPVGRKT [C21G] | 1.4
CKACITRWWEDLERDFPCPVQRKT [C21Q] | 2.48
CKACITRWWEDLERDFPCPVKRKT [C21K] | 2.19
CKACITRWWEDLERDFPCPVWRKT [C21W] | 2.18
CKACITRWWEDLERDFPCPVVRKT [C21V] | 1.52
CKACITRWWEDLERDFPCPVYRKT [C21Y] | 3.73
CKACITRWWEDLERDFPCPVNRKT [C21N] | 2.39
CKACITRWWEDLERDFPCPVSRKT [C21S] | 1.68
CKACITRWWEDLERDFPCPVTRKT [C21T] | 1.56
CKACITRWWEDLERDFPCPVARKT [C21A] | 2.18
CKACITRWWEDLERDFPCPVRRKT [C21R] | 1.94
CKACITRWWEDLERDFPCPVHRKT [C21H] | 2.63
CKACITRWWEDLERDFPCPVIRKT [C21I] | 1.38
CKACITRWWEDLERDFPCPVLRKT [C21L] | 1.62
CKACITRWWEDLERDFPCPVPRKT [C21P] | 1.11
CKACITRWWEDLERDFPCPVERKT [C21E] | 1.32
CKACITRWWEDLERDFPCPVMRKT [C21M] | 1.56
CKACITRWWEDLERDFPCPVFRKT [C21F] | 1.43

Variant | protein stability index
CKACITRWWEDLERDFPCPVDRKT [C21D] | 2.57
CKACITRWWEDLERDFPCPVCRGT [K23G] | 3.38
CKACITRWWEDLERDFPCPVCRDT [K23D] | 4.34
CKACITRWWEDLERDFPCPVCRLT [K23L] | 2.96
CKACITRWWEDLERDFPCPVCRTT [K23T] | 3.31
CKACITRWWEDLERDFPCPVCRVT [K23V] | 3.42
CKACITRWWEDLERDFPCPVCRPT [K23P] | 3.41
CKACITRWWEDLERDFPCPVCRCT [K23C] | 3.13
CKACITRWWEDLERDFPCPVCRMT [K23M] | 3.37
CKACITRWWEDLERDFPCPVCRFT [K23F] | 2.57
CKACITRWWEDLERDFPCPVCRIT [K23I] | 3.23
CKACITRWWEDLERDFPCPVCRQT [K23Q] | 4.58
CKACITRWWEDLERDFPCPVCRAT [K23A] | 3.9
CKACITRWWEDLERDFPCPVCRST [K23S] | 3.63
CKACITRWWEDLERDFPCPVCRET [K23E] | 4.33
CKACITRWWEDLERDFPCPVCRHT [K23H] | 3.27
CKACITRWWEDLERDFPCPVCRNT [K23N] | 3.95
CKACITRWWEDLERDFPCPVCRRT [K23R] | 3.25
CKACITRWWEDLERDFPCPVCRYT [K23Y] | 2.29
CKACITRWWEDLERDFPCPVCRWT [K23W] | 2.95

Variants of: B2
Experiment: as above
Conditions: c terminus: native

Variant | protein stability index
SDVSMWDQRWQDHQPLLPITDVP [Q2D] | 3.38
SYVSMWDQRWQDHQPLLPITDVP [Q2Y] | 1.89
SNVSMWDQRWQDHQPLLPITDVP [Q2N] | 2.6
SPVSMWDQRWQDHQPLLPITDVP [Q2P] | 2.83
SSVSMWDQRWQDHQPLLPITDVP [Q2S] | 1.88
SMVSMWDQRWQDHQPLLPITDVP [Q2M] | 3.18
